Measured values taken from patent US20200016207A1, “[…] c-MPL PROVIDES LIGAND-DEPENDENT CO-STIMULATION AND CYTOKINE SIGNALS TO TCR-ENGINEERED T CELLS” (Baylor College of Medicine, priority 2017, published 2020).

Tests used:
[1] = target: hematopoietic growth factor receptor c-MPL (myeloproliferative leukemia), the receptor for thrombopoietin, transgenic on human T cells (Homo sapiens (Human)) (UniProt P40238); test: cell-based or functional assay
[2] = test system: c-MPL downstream signaling in c-MPL+ T cells; test: Phosflow for pSTAT5, c-MPL downstream signaling; format: cell-based, human; details: rhTPO 5 and 50 ng/ml; EP 0.1 μg/ml; 1 or 24 hours
Procedure: (§1) Cells were stained ith antibodies and analyzed by flow cytometry. Cells were stained with FITC-, phycoerythrin- (PE-), peridinin chlorophyll protein-(PerCP-), or allophycocyanin-conjugated (APC-conjugated) antibodies (Abs) against CD3, CD4, CD8, CD110 (c-MPL), murine TCR constant region (mCβ, ebioscience), CD19, or CD138. Cell viability was assessed by 7-AAD staining. T cells and tumor cell populations from co-culture assays were quantified by adding CountBright Beads (Invitrogen) to the analysis. T cell memory marker expression on CD8+ T cells re-covered from co-cultures was analyzed by staining cells with FITC-, PE-, ECD-, PerCP-, APC-, APC-AF750, or V450-conjugated Abs against CD45RO, CD45RA, CD62L, CCR7, CD110, mCβ, CD19, and 7AAD. Intracellular staining for phosphoproteins pSTAT3 and pSTAT5 was performed with PE- and Pacific Blue-conjugated Abs and Phosflow reagents (BD). To assess cell proliferation, cells were labeled with Carboxyfluorescein succinimidyl ester (CFSE, ThermoFisher) and analyzed after 7 days of culture. All antibodies were purchased from BD or Beckman Coulter unless otherwise indicated, and all staining procedures were performed according to the manufacturer's recommendation. Data acquisition was performed on a BD FACSCalibur using CellQuest software or a Beckman Coulter Gallios flow cytometer using Kaluza software. […]

BV173 leukemia cells [3] = test: Co-culture of TCR+c-MPL+ T cells with BV173 leukemia cells; format: cell-based, human; details: day 5, E:T 1:3; rhTPO 50 ng/ml, IL2 25 U/ml; noCK 16.7±8.1×10^4
Procedure: as §1

BV173 leukemia cells [4] = test: Serial (sequential) co-culture with BV173 leukemia cells; format: cell-based, human
Procedure: Cells were stained ith antibodies and analyzed by flow cytometry. Cells were stained with FITC-, phycoerythrin- (PE-), peridinin chlorophyll protein-(PerCP-), or allophycocyanin-conjugated (APC-conjugated) antibodies (Abs) against CD3, CD4, CD8, CD110 (c-MPL), murine TCR constant region (mCβ, ebioscience), CD19, or CD138. Cell viability was assessed by 7-AAD staining. T cells and tumor cell populations from co-culture assays were quantified by adding CountBright Beads (Invitrogen) to the analysis. T cell memory marker expression on CD8+ T cells re-covered from co-cultures was analyzed by staining cells with FITC-, PE-, ECD-, PerCP-, APC-, APC-AF750, or V450-conjugated Abs against CD45RO, CD45RA, CD62L, CCR7, CD110, mCβ, CD19, and 7AAD. Intracellular staining for phosphoproteins pSTAT3 and pSTAT5 was performed with PE- and Pacific Blue-conjugated Abs and Phosflow reagents (BD). To assess cell proliferation, cells were labeled with Carboxyfluorescein succinimidyl ester (CFSE, ThermoFisher) and analyzed after 7 days of culture. All antibodies were purchased from BD or Beckman Coulter unless otherwise indicated, and all staining procedures were performed according to the manufacturer's recommendation. Data acquisition was performed on a BD FACSCalibur using CellQuest software or a Beckman Coulter Gallios flow cytometer using Kaluza software. Data analysis was performed with FlowJo software (Tree Star Inc.).
BV173 or U266B1 cells and T cells were co-cultured in up to eight replicate wells at various E:T ratios in CTL media with no cytokines, rhTPO (5 ng/mL or 50 ng/mL), or EP (0.1 μg/mL). […] Co-culture supernatants were harvested 24 hours after initial plating or tumor-cell add-back to replicate wells and stored at −80° C. for further analysis.

U266 myeloma cells = test: Co-culture of TCR+c-MPL+ T cells with U266 myeloma cells; format: cell-based, human; details: rhTPO 50 ng/ml, IL2 25 U/ml, n=3
Procedure: as §1

TCR+c-MPL+ T cells [5] = test: RNA-sequencing and GSEA of sequential killer T cells; format: cell-based, human; details: after 3 BV173 challenges, rhTPO 50 ng/mL or EP 0.1 μg/mL
Source text: Total RNA was extracted from T cells of 3 independent donors, purified after sequential co-culture in no cytokine, rhTPO or EP (see above and FIG. 4A) using the RNeasy Mini Kit (Qiagen). T cell purification consisted of either dead cell removal alone (see above) or dead cell removal followed by FACS sorting (FACS Aria, BD, Flow Cytometry Core Laboratory at the Texas Children's Hospital Feigin Center), to achieve a >98% T cell purity and T cell viability of >90%. Total RNA samples were sent to GENEWIZ for library preparation and next generation sequencing, with 30 million reads per sample at a 1×50 base pair configuration.
RNA-Seq was performed in triplicates from 3 independent donors for all 3 conditions (control, rhTPO and EP; see main text). Fastq files were aligned to the transcriptome using HiSat2 with default parameters (Kim et al., 2015). Following alignment and quality control analysis, one replicate of the control dataset was removed due to poor signal to noise ratio. Transcripts were assembled and FPKM values were generated using cuffquant and cuffnorm from the cufflinks software suite (Trapnell et al., 2010) Active transcripts were defined as transcripts with a normalized FPKM value greater than 1 in at least one sample. […]

TCR+ T cells = test: Antigen-specific expansion with survivin peptide-pulsed aAPCs, TCR+ T cells; format: cell-based, human; details: IL-2 50 U/mL; rhTPO up to 500 ng/ml
Procedure: At the end of the first stimulation (7 days), cells were collected, counted, phenotyped and re-stimulated with fresh peptide-pulsed aAPCs under the same conditions. Fold expansion was recorded at the end of the second stimulation.

NT T cells = test: Expansion of non-transduced (NT) T cells in TPO; format: cell-based, human; details: cell number from 3×10^6 cells, TPO 50 ng/ml, mean±SD, n=4
Procedure: (§2) […] Transient retroviral supernatant was prepared by transfection of 293T cells and activated T cells were transduced as described (Arber et al., 2015). The number of retroviral integrants in TCR+c-MPL+ T cells was estimated by quantitative PCR. Whole PBMC's were isolated from fresh buffy coats by Lymphoprep (Axis-Shield) density gradient centrifugation. If required, CD8+ T cells were isolated from PBMCs using magnetic beads and columns (Miltenyi Biotec). […]
(§3) Cells were stained ith antibodies and analyzed by flow cytometry. […] Cell viability was assessed by 7-AAD staining. T cells and tumor cell populations from co-culture assays were quantified by adding CountBright Beads (Invitrogen) to the analysis. T cell memory marker expression on CD8+ T cells re-covered from co-cultures was analyzed by staining cells with FITC-, PE-, ECD-, PerCP-, APC-, APC-AF750, or V450-conjugated Abs against CD45RO, CD45RA, CD62L, CCR7, CD110, mCβ, CD19, and 7AAD. […] To assess cell proliferation, cells were labeled with Carboxyfluorescein succinimidyl ester (CFSE, ThermoFisher) and analyzed after 7 days of culture. […]

TCR+c-MPL+ T cells [6] = test: Antigen-specific expansion with survivin peptide-pulsed aAPCs, TCR+c-MPL+ T cells; format: cell-based, human; details: rhTPO 5, 50, 500 ng/ml, two stimulations
Procedure: aAPCs (described above) were pulsed with the […] survivin peptide (Genemed Synthesis), irradiated at 100 cGy, and used to stimulate T cells at an E:T ratio of 4:1 with IL-2 (50 U/mL) or rhTPO (5 ng/mL, 50 ng/mL, or 500 ng/mL). At the end of the first stimulation (7 days), cells were collected, counted, phenotyped and re-stimulated with fresh peptide-pulsed aAPCs under the same conditions. Fold expansion was recorded at the end of the second stimulation.

[7] = test system: immune synapses between TCR+c-MPL+ T cells and BV173 leukemia cells; test: Immunological synapse imaging (confocal microscopy); format: cell-based, human; details: mean±SD
Procedure: T cells isolated from sequential killing co-cultures and fresh BV173 target cells were mixed at E:T 1:2, incubated for 10 minutes, fixed, permeabilized, stained with the appropriate antibodies, and analyzed on a Leica TCS SP8 laser scanning microscope. T cells were co-cultured with BV173 cells at an E:T ratio of 1:5 in CTL media with no cytokines, rhTPO (50 ng/mL) or EP (0.1 μg/mL). After one killing (no cytokine condition) or three sequential killings (rhTPO and EP conditions), cells were collected and dead cells removed (Dead Cell Removal Kit, Miltenyi) (FIG. 4A). For confocal microscopy, T cells and fresh BV173 target cells were mixed at E:T ratio of 1:2, incubated for ten minutes in a tube and ten minutes on silane-coated glass slides (Electron Microscopy Sciences) at 37° C. Cells were then permeabilized and fixed with Perm/Fix solution (BD) for 15 minutes at room temperature and stained with anti-Pericentrin (rabbit, Abcam) and anti-Perforin Alexa-488 (mouse, BD Biosciences) primary antibodies. Phalloidin 568 (Life Technologies) was used to detect F-actin. Cells were imaged as Z stacks of 0.2 μm thickness to cover their entire volume on a Leica TCS SP8 laser scanning microscope using a 100× objective. Images were acquired with the LASAF software (Leica) and analyzed with Imaris software (Imaris) and Fiji.

c-MPL+ cells = test: c-MPL ligand-dependent STAT3/STAT5 phosphorylation in TCR+c-MPL+ T cells; format: cell-based, human; details: TPO 50 ng/ml or EP 0.1 μg/ml, 1 or 24 hours; c-MPL- cells did not
Procedure: Similar results were obtained with the TPO small molecule agonist EP. A dose-titration experiment was used to determine the optimal concentration of EP to support c-MPL+ T cell expansion (FIG. 2C). EP was previously shown to inhibit leukemia cell proliferation at higher concentrations (1-10 μg/ml) by reduction of intracellular iron, a c-MPL independent effect (Roth et al., 2012). NT or c-MPL+ T cells were re-activated on OKT3/CD28-coated plates in the presence of different EP concentrations and expansion of viable T cells was determined after 7 days. […] Next, it was evaluated whether rhTPO enhanced the anti-tumor function of TCR+c-MPL+ T cells using two different HLA-A*0201+survivin+hematologic malignancies as targets (U266 multiple myeloma, BV173 leukemia) (FIGS. 2E-2F). […]
Cells were stained ith antibodies and analyzed by flow cytometry. […] Cell viability was assessed by 7-AAD staining. T cells and tumor cell populations from co-culture assays were quantified by adding CountBright Beads (Invitrogen) to the analysis. T cell memory marker expression on CD8+ T cells re-covered from co-cultures was analyzed by staining cells with FITC-, PE-, ECD-, PerCP-, APC-, APC-AF750, or V450-conjugated Abs against CD45RO, CD45RA, CD62L, CCR7, CD110, mCβ, CD19, and 7AAD. […]

c-MPL+ T cells = test: Expansion of polyclonal c-MPL+ T cells in TPO; format: cell-based, human; details: cell number from 3×10^6 cells, TPO 50 ng/ml, mean±SD, n=4
Procedure: as §2, §3

[8] = after three tumor cell challenges
[9] = baseline after T cell expansion

Molecule | T cell expansion in TPO 50 ng/ml (cell number by day 7 from 3x10^6 cells) [1] | STAT5 phosphorylation in c-MPL+ T cells [2] | T cell count in BV173 co-culture (BV173 leukemia cells [3]) | T cell expansion in serial co-culture (BV173 leukemia cells [4]; E:T 1:5, versus no cytokines) | CD45RA+CD45RO+ and central memory cells among persistent T cells (BV173 leukemia cells [4]; serial co-culture) | Th1 cytokine production in sequential co-cultures (BV173 leukemia cells [4]; supernatants 24 hours after tumor cell challenge) | residual U266 cells (U266 myeloma cells; day 5, E:T 1:1, TCR+c-MPL+ T cells, noCK 43.3±1.1×10^5) | T cell count in U266 co-culture (U266 myeloma cells; day 5, E:T 1:1, noCK 1.84±0.31×10^5) | cell cycle associated genes in T cells from treated co-cultures versus controls (TCR+c-MPL+ T cells [5]) | antigen-specific expansion of TCR+ T cells (TCR+ T cells) | NT cells in TPO by day 7 (NT T cells) | antigen-specific expansion of TCR+c-MPL+ T cells (TCR+c-MPL+ T cells [6]) | MTOC to synapse distance, co-culture [7, 8] | perforin distance to the synapse (perforin convergence), co-culture [7, 8] | actin accumulation at the synapse, co-culture ([7]; after three tumor cell challenges, rhTPO 50 ng/mL or EP 0.1 μg/mL) | MTOC to synapse distance, baseline [7, 9] | actin accumulation at the synapse, baseline [7, 9] | perforin distance to the synapse (perforin convergence), baseline [7, 9] | STAT3 and STAT5 phosphorylation in c-MPL+ cells (c-MPL+ cells) | c-MPL+ cells in TPO by day 7 (c-MPL+ T cells)
recombinant human thrombopoietin (TPO) (from UniProt P40225 22-195) (ligand) | 7.44e+06 cells | – | – | – | – | – | – | – | – | – | – | – | – | – | – | – | – | – | – | –
thrombopoietin (protein, recombinant human thrombopoietin, ligand of c-MPL) SPAPPACDLRVLSKLLRDSHVLHSRLSQCPEVHPLPTPVLLPAVDFSLGEWKTQMEETKAQDILGAVTLLLEGVMAARGQLGPTCLSSLLGQLSGQVRLLLGALQSLLGTQLPPQGRTTAHKDPNAIFLSFQHLLRGKVRFLMLVGGSTLCVRRAPPTTAVPSRTSLVLTLNEL | – | occurred | 31.5±19.1×10^4 | significantly enhanced | enrichment | sustained | 22.8±11.2×10^5 | 4.41±5.11×10^5 | downregulated | not | 0.89±0.61×10^6 | expanded in a TPO-dose dependent manner | 1.46±1.58 μm | 3.68±1.70 μm | 52.60±16.32% | 3.96±2.49 μm | 35.23±16.41% | 3.53±1.00 μm | phosphorylated | 7.44±0.99×10^6
